Experimental data as given in PMC9942873 (Immunity, 2023).

Tests used:
Assay in all cases: ELISA
Conditions in all cases: both partners purified
Pfs48/45 D2-3 = Pfs48/45 D2-3 (Plasmodium falciparum 3D7, UniProt Q8I6T1)
Pfs48/45 D3 = Pfs48/45 D3 (Plasmodium falciparum 3D7, UniProt Q8I6T1)
[1] = target: recombinant full-length Pfs48/45 (Plasmodium falciparum 3D7, UniProt Q8I6T1)
Pfs48/45 D1-2 = Pfs48/45 D1-2 (Plasmodium falciparum 3D7, UniProt Q8I6T1)

Measured: binding result

Sequence of Pfs48/45 D2-3 (Q8I6T1 184-428): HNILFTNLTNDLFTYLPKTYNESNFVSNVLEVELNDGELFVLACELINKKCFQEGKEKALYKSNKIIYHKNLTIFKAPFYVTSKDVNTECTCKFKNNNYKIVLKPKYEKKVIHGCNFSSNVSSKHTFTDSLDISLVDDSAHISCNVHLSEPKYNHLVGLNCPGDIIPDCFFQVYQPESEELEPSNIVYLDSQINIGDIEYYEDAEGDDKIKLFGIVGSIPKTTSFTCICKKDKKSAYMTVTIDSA
Sequence of Pfs48/45 D1-2 (Q8I6T1 28-289): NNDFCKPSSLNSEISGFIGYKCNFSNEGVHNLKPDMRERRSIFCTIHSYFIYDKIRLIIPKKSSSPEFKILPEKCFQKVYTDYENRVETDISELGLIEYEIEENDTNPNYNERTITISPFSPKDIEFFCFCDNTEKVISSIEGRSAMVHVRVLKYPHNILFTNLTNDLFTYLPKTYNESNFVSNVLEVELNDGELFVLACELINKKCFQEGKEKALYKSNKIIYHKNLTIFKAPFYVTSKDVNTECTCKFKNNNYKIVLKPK
Sequence of Pfs48/45 D3 (Q8I6T1 287-428): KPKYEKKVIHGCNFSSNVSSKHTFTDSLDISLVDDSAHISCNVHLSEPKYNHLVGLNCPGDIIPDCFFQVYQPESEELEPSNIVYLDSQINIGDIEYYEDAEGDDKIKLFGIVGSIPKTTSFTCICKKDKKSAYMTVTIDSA
Sequence of recombinant full-length Pfs48/45 (Q8I6T1 28-428): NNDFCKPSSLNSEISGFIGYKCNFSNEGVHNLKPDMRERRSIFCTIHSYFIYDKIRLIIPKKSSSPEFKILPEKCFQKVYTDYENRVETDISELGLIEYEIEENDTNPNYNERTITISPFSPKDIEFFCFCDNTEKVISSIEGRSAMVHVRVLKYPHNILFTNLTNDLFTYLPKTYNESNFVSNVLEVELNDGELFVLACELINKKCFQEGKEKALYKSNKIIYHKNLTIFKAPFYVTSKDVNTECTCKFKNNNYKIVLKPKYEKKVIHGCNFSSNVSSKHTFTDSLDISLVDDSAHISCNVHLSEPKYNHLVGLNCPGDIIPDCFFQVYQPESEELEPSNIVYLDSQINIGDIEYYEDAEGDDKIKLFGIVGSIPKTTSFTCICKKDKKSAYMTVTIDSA

B1: RUPA-29 (antibody, V domains shown)
VH: QVHLVESGGGVVQPGRSLRLSCAASGFTFRSYGMHWVRLAPGKGLEWVTAIWYDGSKKHFADSVKGRFTISRDNSKNTLYLQMSSLRVEDTAVYYCARDFAHGAFYPVDWGRGTLVTVSS
VL: SYELTQPPSVSVSPGQTARITCSGDALPKKHAYWYQQKSGQAPVLVIYDDSKRPSGIPERFSGSSSGTMATLSISGAQVEDEAAYYCYSSDTSANYWVFGGGTKLTVL
notes: human IgG1; source: recombinant human IgG1, 293T (Protein A purified) or GenScript
binds: Pfs48/45 D2-3 | Pfs48/45 D3 | [1]

B2: RUPA-70 (antibody, V domains shown)
VH: QVQLQESGPGLVKPSQTLSLTCTVSGGSISIGGYYWSWIRQHPGKGLEWIGYIYYSGTTYYNPSLKSRVIISIDTSKNQFSLRLKSVTAADTAVYYCARTGLVAAIRGSRRGQQGDYFDYWGQGTLVPVSS
VL: SYELTQPPSVSVSPGQTASLTCSGDKLGDKYASWYQQKPGQSPVLVIHQDKKRPSGIPERFSGSNSGNTATLTISGTQAMDEADYYCQAWDSNTGVFGGGTKLTVL
notes: as for B1
binds: Pfs48/45 D2-3 | Pfs48/45 D3 | [1]

B3: RUPA-57 (antibody, V domains shown)
VH: QVQLVESGGGVVQPGRSLRLSCTASGFSFSDYGMHWVRQAPGKGLEWVAVISYHGRDKSYADSVKGRFTISRDNSKKTLYLQMNSLTAEDTALYYCAKSNDHYDNSGYFVYWGLGTKVTVSS
VL: SYELTQPPSVSVSPGQTATITCSGDALPKKFAFWYQQKSGQAPVLVIYEDTKRPSGIPERFSGSSSGTLATLTISGAQVEDEADYYCYSRDSSNTQRVFGGGTKVTVL
notes: as for B1
binds: Pfs48/45 D2-3 | Pfs48/45 D3 | [1]

B4: RUPA-74 (antibody, V domains shown)
VH: QVQLVQSGAEVKKPGASVKVSCKASGYNFLYHDINWVRQAPGQGLEWMGWMNPNTGNRGYAQQFQDRVSLTRDMSQGTAYMELRNLRSDDTAVYYCARGVGSLYGSGGWIDPWGQGTLVTVSS
VL: QSVLTQPPSASETPGQRVTISCSGSSSNIGSNTVNWYQQVPGTAPKLLMYNDNHRPSGVSDRFSGSKSGTSASLAISGLQSADEADYYCETWDDSLKRRVFGGGTKLTVL
notes: as for B1
binds: Pfs48/45 D1-2 | Pfs48/45 D2-3 | [1]

B5: RUPA-61 (antibody, V domains shown)
VH: QVQLVQSGAEVKKPGASVKVSCKASEDTFSSYYIHWVRQAPGQGLEWMGMMNPSGGGTRYTQKFQGRVTMTSDTSTSTVYMEVISLRSEDTAVYYCARVRKRDAYNNRNWGSVFGGMDVWGQGTTVTVSS
VL: QSALTQPPSASGSPGQSVSISCTGTSSDVGGHDYVSWYQHHPGKAPKLMIYEVSKRPSGVPDRFSGAKSGNTASLTVSGLQAEDEADYYCSSFGGSNNLVFGGGTKVTVV
notes: as for B1
binds: Pfs48/45 D2-3 | Pfs48/45 D3 | [1]

B6: RUPA-44 (antibody, V domains shown)
VH: QLQLQESGPGLVKPSETLSLTCTVSGGSISRSPYYWGWIRQPPGKGLEWFGSIYNNGSTYYNPPLKSRLTISVDTSKNQFSLKLSSVTAADTAVYYCARHGGSTGMKVVVIAPPDYWGQGTLVTVSS
VL: DIQMTQSPATLSASVGDRVTITCRASQSISSWLAWYQQKPGEAPKLLIYKASSLQSGVPSRFSGSGSGTKFSLTISSLQPDDFATFYCQQYHSYPYTFGQGTKLEIK
notes: as for B1
binds: Pfs48/45 D2-3 | Pfs48/45 D3 | [1]

B7: RUPA-81 (antibody, V domains shown)
VH: EVQLVATGGGLIQPGGSLRLSCTASGFNVSRMYMSWVRQAPGKGLEWVSVIYSDSSGGSTYYTDSLKGRFIISRDNSQNTLYLQMNSLRVDDTAIYYCARDVRGWGYLDFWGQGTLVTVSS
VL: EIVLTQSPGTLSLSPGERAALSCRASQGVSSSFFAWYQQKPGQAPRLLIYGASSRATGIPDRFSGSGSGTDFTLTISRLEPEDFATYYCQQYGYSPWTFGQGTKVEIK
notes: as for B1
binds: Pfs48/45 D1-2 | Pfs48/45 D2-3 | [1]

B8: RUPA-86 (antibody, V domains shown)
VH: QVQLVQSGAEVKKPGASVKVSCKSSGFRFTGYYIHWVRQAPGQGLEWMGCINPNNGGTNYAQKFQGRVTMTRDTSITTAYMDLSRLKSDDTAVYYCARLVAYDQGLDVWGQGTTVTVSS
VL: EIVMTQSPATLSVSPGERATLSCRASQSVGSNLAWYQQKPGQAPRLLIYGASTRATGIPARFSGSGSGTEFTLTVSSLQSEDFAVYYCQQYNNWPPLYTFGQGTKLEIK
notes: as for B1
binds: Pfs48/45 D1-2 | Pfs48/45 D2-3 | [1]

B9: RUPA-68 (antibody, V domains shown)
VH: QVQLVQSGAELKKPGASVKVSCKASGYTFTSHDITWVRQAAGQGLEWMGWMNPNTGDKGYAQKFQGRVTMTRNMSTRTAYMEVNSLTSEDTAVYYCARGVGTYHGAGGWFDPWGQGTLVTVSS
VL: QSVVTQPPSVSETPGQRVTISCSGSSSNIGSNIVSWYQQLPGTAPKLLIYSDNQRPSGVPDRFSASKSGTSASLAISGLQSEDEADYYCATWDDSLKRGVFGGGTKLTVL
notes: as for B1
binds: Pfs48/45 D1-2 | Pfs48/45 D2-3 | [1]

B10: RUPA-47 (antibody, V domains shown)
VH: QVQLVQSGAEVKKPGASVKLSCTASGYTFTNFGITWVRQAPGQGLEWMAWISVYSGDTDYAQRFQGRVTMTTDTSTRTAYMEMRSLSFDDTAVYYCVRGGRDSPILGGYWGQGTLVTVSS
VL: EIVLTQSPGTLSLSPGERVTLSCRASQSVRSMYLAWYQQKPGQAPRLLIHGASIRATGIPDRFSGSGSGTDFTLTISRLEREDFAVYYCHQYGSSPLTFGGGTKVESK
notes: as for B1
binds: Pfs48/45 D2-3 | Pfs48/45 D3 | [1]

B11: RUPA-54 (antibody, V domains shown)
VH: QVQLVESGGGVVQPGRSLRLSCTASGFTFRSYGIHWVRQAPGKGLQWVAFISYDGRNKYYADSVKGRFTISRDNSKNTLYLQMSGLRADDTAVYYCAKDSDNDCTATSCYTVSWGQGTLVTVSS
VL: SYELTQPPSVSVSPGQTARITCSGDALPKKYAYWYQQKSGQAPVLVIYEDKKRPSGIPERFSGSSSGTMATLTISGAQVEDEADYYCYSTDSRTDHGGIFGGGTKLTVL
notes: as for B1
binds: Pfs48/45 D2-3 | Pfs48/45 D3 | [1]

B12: RUPA-63 (antibody, V domains shown)
VH: QVQLVQSGAEVKKTGASVKVSCKASGYTFTSHDIIWVRQAAGQGLEWMGWMNPNTGKKGYAQRFQGRITLTRNMSTGTAYMELGSLRSDDSAIYYCARGVGTYYGSEGWLDPWGQGTLVTVSS
VL: QSVLTQPPSASETPGQRVTISCSGSSSNVGSNTVNWYQQLPGTAPKLLMYNTNQRPSGVPDRFSGSKSGTSASLAISGLRSEDEADYYCAAWDDSLKRGVFGGGTRLTVL
notes: as for B1
binds: Pfs48/45 D1-2 | Pfs48/45 D2-3 | [1]

B13: RUPA-84 (antibody, V domains shown)
VH: QVQLVQSGAEVKKTGASVKVSCKASGYTFTSHDIIWVRQAAGQGLEWMGWMNPNTGKKGYAQKFQGRVTLTRNMSTGTAYMELNSLRSDDSAVYYCARGVGTYYGSEGWLDPWGQGTLVTVSS
VL: QSVLTQPPSASETPGQRVTISCSGSSSNVGSNSVNWYQQLPGTAPKLLMYNTNQRPSGVPDRFSGSKSGTSASLAISGLRSEDEADYYCATWDDSLKRGVFGGGTKLTVL
notes: as for B1
binds: Pfs48/45 D1-2 | Pfs48/45 D2-3 | [1]

B14: RUPA-35 (antibody, V domains shown)
VH: QVQLVQSGAEVKKPGASVKVSCKASGYTFTSHDIIWVRQAPGQGLEWMGWMNPNIGDTGYAQKFQGRLSMTRKMSISTAYMELSSLRSEDTAVYYCSRGVGTYHGSGGWFDPWGQGTLVTVSS
VL: QSVLTQPPSASETPGQRVTISCSGSTSNIGSNTVSWYQQYPGTAPKLLMYSDNQRPSGVPDRFSGSKSGTSASLAISGLQSEDEAEYYCATWDDSLKRGVFGGGTKLTVL
notes: as for B1
binds: Pfs48/45 D1-2 | Pfs48/45 D2-3 | [1]

B15: RUPA-83 (antibody, V domains shown)
VH: QVQLVQSGAEVKKPGASVKVSCKASGYIFTDYGITWVRQAPGQGLEWLGWISGYSYNTNYALKFQGRVTMTTDTSTSVTYMELRNLRSDDTAVYYCARDSRSSQLLQKFDLWGQGTLVTVSS
VL: DIQLTQSPSSLSASVGDRVTITCRASQTTRNFLNWYQQKPGKAPELLIYAASTLQSGVPSRFSGSGSGTDFTLTIKNLQPEDFASYYCQQSFSSPTFGQGTKVEIK
notes: as for B1
binds: Pfs48/45 D1-2 | Pfs48/45 D2-3 | [1]

B16: RUPA-53 (antibody, V domains shown)
VH: QVLLVQSGAEVKKPGASVKVSCKASGYTFLYHDISWVRQATGQGLEWMGWMNPNTGDTGYAQRFQGRVTMTRDMSISTAYLELGSLSSEDTAVYYCARGVGSYHGSGGWLDPWGQGTLVIVSS
VL: not shown
notes: as for B1
binds: Pfs48/45 D1-2 | Pfs48/45 D2-3 | [1]

B17: RUPA-65 (antibody, V domains shown)
VH: QVQLVQSGAEVKKPGASVKVSCKASGYTFLYHDIIWMRQATGQGPEWMGWINPNTGNTGHAQKFQGRVTLTRNMSSGTAYMELRSLRSEDTAVYYCARGVGTYHGSGGWFDPWGQGTLVTVSS
VL: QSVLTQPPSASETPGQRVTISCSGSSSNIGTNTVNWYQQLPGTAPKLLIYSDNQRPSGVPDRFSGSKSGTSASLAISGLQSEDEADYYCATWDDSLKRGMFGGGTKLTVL
notes: as for B1
binds: Pfs48/45 D1-2 | Pfs48/45 D2-3 | [1]

B18: RUPA-49 (antibody, V domains shown)
VH: QVQLVQSGAEVKKPGASVKVSCKASGYTFLYHDIIWMRQATGQGPEWMGWINPNTGNTGLAQKFQGRVSLTRNMSSGTAYMELRSLRSEDRAIYFCARGVGTYHGSGGWFDPWGQGTLVAVSS
VL: QSVLTQPPSASETPGQRVTLSCSGSSSNIGSHTVNWYRQLPGTAPKLLIHSDDQRPSGVPDRFSGSKSGTSASLAISGLQSEDEADYYCATWDDSLKRGVFGGGTKLTVL
notes: as for B1
binds: Pfs48/45 D1-2 | Pfs48/45 D2-3 | [1]

B19: RUPA-72 (antibody, V domains shown)
VH: EVQLVESGGGLVQPGGSLRLSCAASGFTFSYYWMHWVRQAPGKELVWVSRIKSDGSSGTTTDYADSVKGRFTISRDTAKNTLYLQMNSLRAEDTAVYYCARAGCSNGVCPPRYYYHGMDVWGQGTTVTVSS
VL: EIVLTQSPGTLSGSPGERATLSCRASQSIRSNYLAWYQQKPGQAPRLLIYGASSRATDIPARFSGSGSGTDFTLTISRLEPEDFAVYYCQHYGNSRVTFGQGTKVEIK
notes: as for B1
binds: Pfs48/45 D2-3 | Pfs48/45 D3 | [1]
